Article PMC6335420, “The cell cycle regulator GpsB functions as cytosolic adaptor for multiple cell wall enzymes” (Nature Communications, 2019)
Where two headings read alike, the source gives them in different places. Residues, ends and D or L forms follow the SMILES beside them. No end group written: not given here. *: point of attachment. X1 = CN(C)c1ccc2c(-c3ccc(N4C(=O)CC(*)C4=O)cc3C(=O)[O-])c3ccc(=[N+](C)C)cc-3oc2c1; fluorescein‑maleimide = fluorescein attached via maleimide to Cys

Assays:
BsGpsB1-68 [1] = molecular target: T1, BsGpsB1-68 (Bacillus subtilis, UniProt P0CI74); format: binding; conditions: FP; for reduction in affinity for BsGpsB1-68: relative to wild-type peptide
T1 construct: His6 (N, cleaved yes); made in house; host or cells: E. coli BL21(DE3)
From the text: 75 the BsGpsB5-64:BsPBP11-17 complex.

[2] = Circular dichroism of PBP peptides (helicity); format: physicochemical; conditions: CD, 222 nm, 4 °C, 20 mM sodium phosphate pH 7.3, 25 μM peptide
Method: CD spectra were recorded on a JASCO J-810 spectropolarimeter with a PTC-4235 Peltier temperature controller using 1 mm path length quartz cuvettes. For full wavelength scans a scan speed of 10 nm^−1min^−1 and a response time of 4 s were used, the final spectra were the average of at least four measurements. BsPBP1_1-32 CD spectra were recorded at 4 °C in a buffer of 20 mM sodium phosphate, pH 7.3 at a peptide concentration of 25 μM. Peptide helical contents were estimated from molar ellipticities at 222 nm using the equation helix = [θ]222 nm / (39,500(1–2.57/n))[78] where n is the number of residues in the peptide. LmPBPA1_1-15 CD spectra were analysed at 40 μM in 20 mM sodium phosphate buffer, pH 7.8, for samples containing 0, 40 and 60% trifluoroethanol (TFE). For samples containing 80% TFE, 5 mM sodium phosphate buffer, pH 7.8, was used. The CD spectra of BsGpsB1-68 proteins were measured at a concentration of 4.5 μM in a buffer of 20 mM sodium phosphate (pH 7.8) 150 mM NaCl. For thermal melt experiments, a response time of 8 s and scan rate of 1 °C^−1min^−1 were used. All thermal melts were reversible as CD spectra recorded before and after the melts in the wavelength range 200–240 nm could be superimposed.

BsGpsB1-68 [3] = molecular target: T2, BsGpsB1-68 (B. subtilis, UniProt P0CI74 1-68); experiment: fluorescence polarisation; GpsB protein titrated into TAMRA- or fluorescein-labelled peptide; 10 mM Tris.HCl pH 8.0, 250 mM NaCl, 0.1% reduced Triton X-100; all data fitted to a 1:1 interaction model, Kd ± standard error; conditions: both partners purified
T2 construct: GpsB, Bacillus subtilis, residues 1-68 (N-terminal domain); also called N-terminal domain of B. subtilis GpsB; wildtype BsGpsB1-68; source: E. coli BL21(DE3), purified (Ni-NTA, thrombin removal of the His6-tag, SEC); not shown: His6, N-terminal, cleaved
T2 sequence (looked up): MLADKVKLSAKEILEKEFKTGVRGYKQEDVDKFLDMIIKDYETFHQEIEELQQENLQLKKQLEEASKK

Molecule: CSCC[C@H](NC(=O)[C@H](CO)NC(=O)CN)C(=O)N[C@@H](C)C(=O)N[C@@H](CC(=O)O)C(=O)N[C@@H](CCC(N)=O)C(=O)N[C@@H](Cc1ccccc1)C(=O)N[C@@H](CC(N)=O)C(=O)N[C@@H](CO)C(=O)N[C@@H](C)C(=O)N[C@@H](CCC(=O)O)C(=O)N[C@@H](C)C(=O)N[C@@H](CCCNC(=N)N)C(=O)N[C@@H](CCCNC(=N)N)C(=O)N[C@@H](CCCCN)C(=O)N[C@@H](C)C(=O)N[C@@H](CC(N)=O)C(=O)N[C@@H](CSC1CC(=O)N(c2ccc(-c3c4ccc(=[N+](C)C)cc-4oc4cc(N(C)C)ccc34)c(C(=O)[O-])c2)C1=O)C(=O)N[C@@H](CCCCN)C(=O)N[C@@H](CO)C(=O)N[C@@H](CO)C(=O)N1CCC[C@H]1C(=O)N[C@@H](CO)C(=O)N1CCC[C@H]1C(=O)N[C@@H](CCCCN)C(=O)N[C@@H](CCCCN)C(=O)NCC(=O)N[C@@H](CCCCN)C(=O)N[C@@H](CCCCN)C(=O)N[C@@H](CCCNC(=N)N)C(=O)N[C@@H](CCCCN)C(=O)N[C@@H](CCCCN)C(=O)NCC(=O)NCC(=O)O (stereo partly drawn) [TAMRA-BsPBP11-32 Arg8Ala] (H-GSMADQFNSAEARRKANC(X1)KSSPSPKKGKKRKKGG-OH)
- reduction in affinity for BsGpsB1-68 (BsGpsB1-68 [1]): at least 5 fold

Molecule: CSCC[C@H](NC(=O)[C@H](CO)NC(=O)CN)C(=O)N[C@@H](C)C(=O)N[C@@H](CC(=O)O)C(=O)N[C@@H](CCC(N)=O)C(=O)N[C@@H](Cc1ccccc1)C(=O)N[C@@H](CC(N)=O)C(=O)N[C@@H](CO)C(=O)N[C@@H](CCCCN)C(=O)N[C@@H](CCC(=O)O)C(=O)N[C@@H](C)C(=O)N[C@@H](CCCNC(=N)N)C(=O)N[C@@H](CCCNC(=N)N)C(=O)N[C@@H](CCCCN)C(=O)N[C@@H](C)C(=O)N[C@@H](CC(N)=O)C(=O)N[C@@H](CSC1CC(=O)N(c2ccc(-c3c4ccc(=[N+](C)C)cc-4oc4cc(N(C)C)ccc34)c(C(=O)[O-])c2)C1=O)C(=O)N[C@@H](CCCCN)C(=O)N[C@@H](CO)C(=O)N[C@@H](CO)C(=O)N1CCC[C@H]1C(=O)N[C@@H](CO)C(=O)N1CCC[C@H]1C(=O)N[C@@H](CCCCN)C(=O)N[C@@H](CCCCN)C(=O)NCC(=O)N[C@@H](CCCCN)C(=O)N[C@@H](CCCCN)C(=O)N[C@@H](CCCNC(=N)N)C(=O)N[C@@H](CCCCN)C(=O)N[C@@H](CCCCN)C(=O)NCC(=O)NCC(=O)O (stereo partly drawn) [TAMRA-BsPBP11-32 Arg8Lys] (H-GSMADQFNSKEARRKANC(X1)KSSPSPKKGKKRKKGG-OH)
- reduction in affinity for BsGpsB1-68 (BsGpsB1-68 [1]): at least 5 fold

Molecule: CSCC[C@H](NC(=O)[C@H](CO)NC(=O)CN)C(=O)N[C@@H](C)C(=O)N[C@@H](CC(=O)O)C(=O)N[C@@H](CCC(N)=O)C(=O)N[C@@H](Cc1ccccc1)C(=O)N[C@@H](CC(N)=O)C(=O)N[C@@H](CO)C(=O)N[C@@H](CCCNC(=N)N)C(=O)N[C@@H](CCC(=O)O)C(=O)N[C@@H](C)C(=O)N[C@@H](CCCNC(=N)N)C(=O)N[C@@H](CCCNC(=N)N)C(=O)N[C@@H](CCCCN)C(=O)N[C@@H](C)C(=O)N[C@@H](CC(N)=O)C(=O)N[C@@H](CSC1CC(=O)N(c2ccc(-c3c4ccc(=[N+](C)C)cc-4oc4cc(N(C)C)ccc34)c(C(=O)[O-])c2)C1=O)C(=O)N[C@@H](CCCCN)C(=O)N[C@@H](CO)C(=O)N[C@@H](CO)C(=O)N1CCC[C@H]1C(=O)N[C@@H](CO)C(=O)N1CCC[C@H]1C(=O)N[C@@H](CCCCN)C(=O)N[C@@H](CCCCN)C(=O)NCC(=O)N[C@@H](CCCCN)C(=O)N[C@@H](CCCCN)C(=O)N[C@@H](C)C(=O)N[C@@H](CCCCN)C(=O)N[C@@H](CCCCN)C(=O)NCC(=O)NCC(=O)O (stereo partly drawn) [TAMRA-BsPBP11-32 Arg28Ala] (H-GSMADQFNSREARRKANC(X1)KSSPSPKKGKKAKKGG-OH)
- binding to BsGpsB1-68 (in words) (BsGpsB1-68 [1]): no effect on binding

Molecule: CSCC[C@H](NC(=O)[C@H](CO)NC(=O)CN)C(=O)N[C@@H](C)C(=O)N[C@@H](CC(=O)O)C(=O)N[C@@H](CCC(N)=O)C(=O)N[C@@H](Cc1ccccc1)C(=O)N[C@@H](CC(N)=O)C(=O)N[C@@H](C)C(=O)N[C@@H](CCCNC(=N)N)C(=O)N[C@@H](CCC(=O)O)C(=O)N[C@@H](C)C(=O)N[C@@H](CCCNC(=N)N)C(=O)N[C@@H](CCCNC(=N)N)C(=O)N[C@@H](CCCCN)C(=O)N[C@@H](C)C(=O)N[C@@H](CC(N)=O)C(=O)N[C@@H](CSC1CC(=O)N(c2ccc(-c3c4ccc(=[N+](C)C)cc-4oc4cc(N(C)C)ccc34)c(C(=O)[O-])c2)C1=O)C(=O)N[C@@H](CCCCN)C(=O)N[C@@H](CO)C(=O)N[C@@H](CO)C(=O)N1CCC[C@H]1C(=O)N[C@@H](CO)C(=O)N1CCC[C@H]1C(=O)N[C@@H](CCCCN)C(=O)N[C@@H](CCCCN)C(=O)NCC(=O)N[C@@H](CCCCN)C(=O)N[C@@H](CCCCN)C(=O)N[C@@H](CCCNC(=N)N)C(=O)N[C@@H](CCCCN)C(=O)N[C@@H](CCCCN)C(=O)NCC(=O)NCC(=O)O (stereo partly drawn) [TAMRA-BsPBP11-32 Ser7Ala] (H-GSMADQFNAREARRKANC(X1)KSSPSPKKGKKRKKGG-OH)
- helical residues corresponding to helical content [2]: ~ 6 residues
- α-helical content ([2]; average of at least four measurements): 19%
- reduction in affinity for BsGpsB1-68 (BsGpsB1-68 [1]; listed as BsPBP1_1-32^Ser7Ala): at least 6 fold
- reduction in affinity for BsGpsB1-68 (BsGpsB1-68 [1]; listed as BsPBP11-32Ser7Ala): > 5 fold

Molecule: CSCC[C@H](NC(=O)[C@H](CO)NC(=O)CN)C(=O)N[C@@H](C)C(=O)N[C@@H](CC(=O)O)C(=O)N[C@@H](CCC(N)=O)C(=O)N[C@@H](Cc1ccccc1)C(=O)N[C@@H](CC(N)=O)C(=O)N[C@@H](CO)C(=O)N[C@@H](CCCNC(=N)N)C(=O)N[C@@H](CCC(=O)O)C(=O)N[C@@H](C)C(=O)N[C@@H](C)C(=O)N[C@@H](CCCNC(=N)N)C(=O)N[C@@H](CCCCN)C(=O)N[C@@H](C)C(=O)N[C@@H](CC(N)=O)C(=O)N[C@@H](CSC1CC(=O)N(c2ccc(-c3c4ccc(=[N+](C)C)cc-4oc4cc(N(C)C)ccc34)c(C(=O)[O-])c2)C1=O)C(=O)N[C@@H](CCCCN)C(=O)N[C@@H](CO)C(=O)N[C@@H](CO)C(=O)N1CCC[C@H]1C(=O)N[C@@H](CO)C(=O)N1CCC[C@H]1C(=O)N[C@@H](CCCCN)C(=O)N[C@@H](CCCCN)C(=O)NCC(=O)N[C@@H](CCCCN)C(=O)N[C@@H](CCCCN)C(=O)N[C@@H](CCCNC(=N)N)C(=O)N[C@@H](CCCCN)C(=O)N[C@@H](CCCCN)C(=O)NCC(=O)NCC(=O)O (stereo partly drawn) [TAMRA-BsPBP11-32 Arg11Ala] (H-GSMADQFNSREAARKANC(X1)KSSPSPKKGKKRKKGG-OH)
- reduction in affinity for BsGpsB1-68 (BsGpsB1-68 [1]): at least 5 fold

B1: Fluorescein-BsPBP11-32 Ala10Pro (peptide)
peptide: GSMADQFNSREPRRKANSKSSPSPKKGKKRKKC(fluorescein‑maleimide)G
notes: non-native N-terminal residues left by the recombinant method; PBP1 (ponA), Bacillus subtilis, residues 1-32; also called 31-labelled BsPBP1 1-32 A10P
- Kd (BsGpsB1-68 [3]): > 500 µM

B2: TAMRA-BsPBP11-32 Arg8Ala (peptide)
peptide: GSMADQFNSAEARRKANC(TAMRA‑maleimide)KSSPSPKKGKKRKKGG
notes: non-native N-terminal residues left by the recombinant method; PBP1 (ponA), Bacillus subtilis, residues 1-32; also called BsPBP1 1-32 R8A
- Kd (BsGpsB1-68 [3]): > 1700 µM

B3: TAMRA-BsPBP11-32 Arg28Ala (peptide)
peptide: GSMADQFNSREARRKANC(TAMRA‑maleimide)KSSPSPKKGKKAKKGG
notes: non-native N-terminal residues left by the recombinant method; PBP1 (ponA), Bacillus subtilis, residues 1-32; also called BsPBP1 1-32 R28A
- Kd (BsGpsB1-68 [3]): 90 µM

B4: TAMRA-BsPBP11-32 Ala10Pro (peptide)
peptide: GSMADQFNSREPRRKANC(TAMRA‑maleimide)KSSPSPKKGKKRKKGG
notes: non-native N-terminal residues left by the recombinant method; PBP1 (ponA), Bacillus subtilis, residues 1-32; also called BsPBP1 1-32 A10P
- Kd (BsGpsB1-68 [3]): > 1000 µM

B5: Fluorescein-BsPBP11-32 wildtype (peptide)
peptide: GSMADQFNSREARRKANSKSSPSPKKGKKRKKC(fluorescein‑maleimide)G
notes: non-native N-terminal residues left by the recombinant method; PBP1 (ponA), Bacillus subtilis, residues 1-32, cytoplasmic mini-domain; also called BsPBP1 1-32 labelled with fluorescein at residue 31; 31-labelled peptide
- Kd (BsGpsB1-68 [3]): 100 µM

B6: TAMRA-BsPBP11-32 Ser7Ala (peptide)
peptide: GSMADQFNAREARRKANC(TAMRA‑maleimide)KSSPSPKKGKKRKKGG
notes: non-native N-terminal residues left by the recombinant method; PBP1 (ponA), Bacillus subtilis, residues 1-32; also called BsPBP1 1-32 S7A
- Kd (BsGpsB1-68 [3]): > 700 µM

B7: TAMRA-BsPBP11-32 Arg8Lys (peptide)
peptide: GSMADQFNSKEARRKANC(TAMRA‑maleimide)KSSPSPKKGKKRKKGG
notes: non-native N-terminal residues left by the recombinant method; PBP1 (ponA), Bacillus subtilis, residues 1-32; also called BsPBP1 1-32 R8K
- Kd (BsGpsB1-68 [3]): > 2000 µM

B8: TAMRA-BsPBP11-32 Arg11Ala (peptide)
peptide: GSMADQFNSREAARKANC(TAMRA‑maleimide)KSSPSPKKGKKRKKGG
notes: non-native N-terminal residues left by the recombinant method; PBP1 (ponA), Bacillus subtilis, residues 1-32; also called BsPBP1 1-32 R11A
- Kd (BsGpsB1-68 [3]): > 600 µM

B9: Fluorescein-BsPBP11-32 Arg28Ala (peptide)
peptide: GSMADQFNSREARRKANSKSSPSPKKGKKAKKC(fluorescein‑maleimide)G
notes: non-native N-terminal residues left by the recombinant method; PBP1 (ponA), Bacillus subtilis, residues 1-32; also called 31-labelled BsPBP1 1-32 R28A
- Kd (BsGpsB1-68 [3]): 130 µM

B10: Fluorescein-BsPBP11-32 Arg8Ala (peptide)
peptide: GSMADQFNSAEARRKANSKSSPSPKKGKKRKKC(fluorescein‑maleimide)G
notes: non-native N-terminal residues left by the recombinant method; PBP1 (ponA), Bacillus subtilis, residues 1-32; also called 31-labelled BsPBP1 1-32 R8A
- Kd (BsGpsB1-68 [3]): > 500 µM
